{"source": "patent US20240005439A1", "about": "“IMAGING METHODS AND RADIOTRACERS FOR USE THEREIN” (VESTLANDETS INNOVASJONSSELSKAP AS (VIS), priority 2020, published 2024)", "molecules": {"B1": {"name": "unlabelled cystatin C: Human cystatin C purchased from Nordic BioSite, unlabelled (protein, UniProt P01034 27-146, looked up)", "Cystatin-C": "SSPGKPPRLVGGPMDASVEEEGVRRALDFAVGEYNKASNDMYHSRALQVVRARKQIVAGVNYFLDVELGRTTCTKTQPNLDNCPFHDQPHLKRKAFCSFQIYAVPWQGTMTLSKSTCQDA"}, "B2": {"name": "^124I-labelled cystatin C: Human cystatin C (Nordic BioSite) labelled with ^124I for PET by Iodo-Gen (protein, UniProt P01034 27-146, looked up)", "Cystatin-C": "B1 Cystatin-C", "modifications": "124I label", "notes": "Human cystatin C (Nordic BioSite) labelled with ^124I for PET by Iodo-Gen"}}, "key": {"[1]": {"test": "PET GFR scanning (kidney activity divided by AUC)", "format": "in vivo, rats", "conditions": "for GFR relative to the initial control value (PET-CT): CKD rats", "description": "(§1) All animals were scanned using the same scanner, anesthesia procedure, monitoring and positioning as mentioned above. First, CT semicircular scans (same settings as contrast CT) were acquired from the lower edge of the ribs to the pelvis for anatomical reference and attenuation correction for PET. Following CT, a 10-minute dynamic PET acquisition was initiated, which was started 30 seconds before the bolus injection (30 sec duration of the injection) of 5-10 MBq ^18F-cytochrome C diluted in 1 ml saline through a tail vein catheter. Images were reconstructed in 1-5 coincidence mode using the Tera-Tomo 3D reconstruction algorithm (Mediso) with 4 iterations/6 subsets, corrected for attenuation and scatter with a resulting 0.4 mm^3 voxel size. The PET acquisition was reconstructed to 15 timeframes: […]; 6×30 s; 3×120 s.\nSD male rats (n=8) were fed by 0.35% adenine in the chow (Altromin, Denmark) for 7 weeks to induce chronic kidney disease (CKD). PET-CT GFR scanning was performed at baseline and at 3, 5 and 7 weeks after initiation of adenine feeding. Iohexol clearance (described below) was performed at baseline and after 3, 5 and 7 weeks of adenine feeding. Blood samples were taken every second week for creatinine measurements.\nAll images were analyzed using Inter View Fusion version 3.01.021.0000 (Mediso), and CT and PET images were automatically aligned. The sphere selection volume of interest (VOI) function was used to collect the signal from the large abdominal vessels close to the distal aorta branch level in the frame with the highest intensity and copied to all other frames to obtain the ^18F-cytochrome C intensity as a function of time (input function).\nIn more detail, 6 input function candidates were generated from 6 sphere-VOIs with diameters of 5, 6, 7, 8, 9, and 10 mm centered on the maximal signal intensity from the vessels and used for regression analyses to obtain an unbiased estimate of the area under the input function (AUC). […] An unbiased AUC was obtained from the regression analysis using a VOI-volume (x in regression equation) corresponding to a blood vessel diameter of 2.41 mm as measured by the ruler function with the software on the contrast CT images (n=8 images from 8 rats, SD=0.02). This approach was verified by ex vivo blood and kidney samples in a separate set of rats (n=8), i.e. the ^18F-clearances obtained by ex vivo sampling were not different from those obtained by the PET images. The same approach was adopted for mice using sphere diameters of 1, 1.5, 2, 2.5, 3, 3.5, and 4 mm and abdominal vessel diameter of 0.9 mm (n=8 mice, SD=0.07). The auto segmentation tool was used to collect the ^18F-signals from both kidneys at 5.5 minutes using thresholds that gave VOI-volumes that matched the kidney volumes as measured by contrast CT. The total kidney ^18F-activity was calculated as the mean VOI-intensity multiplied with the kidney cortex volume (total kidney volume from CT×2/3) and divided by AUC to obtain GFR."}, "[2]": {"test": "Stability and plasma protein binding of labelled proteins by SEC-HPLC", "format": "physicochemical", "conditions": "high resolution size exclusion chromatography", "description": "The stability and plasma protein binding of stock solutions of ^18F-cytochrome C and ^124I-cystatin C was evaluated by high resolution size exclusion chromatography (SEC-HPLC) after 12 h storage in room temperature and after 8 days of storage in fridge (4° C.)."}, "[3]": {"design": "species or system rats", "conditions": "rat, in vivo", "description": "as §1\nTo investigate the initial distribution, uptake and excretion of ^18F-cytochrome C in the body, two rats were dynamically scanned by PET-CT for 30 minutes. […] The ^18F signal peaked over the large abdominal vessels in less than 1 minute and appeared in the bladder in less than 10 minutes. After 10 minutes, the bladder signal increased exponentially and the kidney signal leveled out reflecting urinary excretion of ^18F-cytochrome C breakdown products."}, "Mouse PET-CT GFR": {"test": "Mouse PET-CT GFR", "format": "in vivo", "conditions": "male C3H mice", "description": "All animals were scanned using the same scanner, anesthesia procedure, monitoring and positioning as mentioned above. First, CT semicircular scans (same settings as contrast CT) were acquired from the lower edge of the ribs to the pelvis for anatomical reference and attenuation correction for PET. Following CT, a 10-minute dynamic PET acquisition was initiated, which was started 30 seconds before the bolus injection (30 sec duration of the injection) of 5-10 MBq ^18F-cytochrome C diluted in 1 ml saline through a tail vein catheter. […]\nIn more detail, 6 input function candidates were generated from 6 sphere-VOIs with diameters of 5, 6, 7, 8, 9, and 10 mm centered on the maximal signal intensity from the vessels and used for regression analyses to obtain an unbiased estimate of the area under the input function (AUC). […] An unbiased AUC was obtained from the regression analysis using a VOI-volume (x in regression equation) corresponding to a blood vessel diameter of 2.41 mm as measured by the ruler function with the software on the contrast CT images (n=8 images from 8 rats, SD=0.02). […] The auto segmentation tool was used to collect the ^18F-signals from both kidneys at 5.5 minutes using thresholds that gave VOI-volumes that matched the kidney volumes as measured by contrast CT. […]"}, "Iohexol plasma clearance": {"test": "Iohexol plasma clearance", "format": "in vivo, rats", "conditions": "for GFR relative to the initial control value (iohexol): CKD rats; for clearance: rat, plasma, 105 mg"}, "[4]": {"test": "Iohexol plasma clearance in mice", "format": "in vivo", "conditions": "mouse, intravenous, 100 μl (iohexol diluted 1:10 from stock solution), male C3H mice, read-out: GFR with the iohexol plasma clearance method", "description": "Male mice (C3H, n=8) anesthetized with isoflurane were injected i.v. in the tail vein with 100 μl iohexol (diluted 1:10 from stock solution). 15 minutes following the injection, the mice were re-anesthetized with isoflurane and were kept anesthetized until termination of the experiments. Blood samples (each 20 μl) were collected from the retro-orbital space at 15, 30, 45 and 60 minutes.\nIohexol clearance was calculated by a bi-exponential method as: GFR=Dose/AUC, where AUC is the area under the plasma iohexol concentration curve. In addition, the slope of the second mono-exponential phase of the plasma disappearance curve for iohexol (k) was calculated using blood samples taken at 60, 90, 120, and 180 minutes.\nFor measurement of iohexol, all blood samples were centrifuged at 2000 g for collection of plasma. Plasma samples (5 μl from rats and 1 μl from mice) were immediately diluted 7.5-60 times by 0.1% (v/v) trifluoroacetic acid (TFA) in water and their iohexol concentrations were measured by two-dimensional HPLC using the Thermo Scientific™ Dionex™ UltiMate™ […] Rapid Separation series hardware, column switching and Chromeleon Chromatography Data System software (7.2.10). […] Both columns were washed separately by 99.9% acetonitrile/0.1% TFA, re-equilibrated in 0.1% TFA in water and ready for the next sample 9 minutes after injection. […]"}}, "data": [{"molecule": "^18F-cytochrome C: Cytochrome C from bovine heart labelled with [^18F]F-Py-TFP, comprising a 6-[^18F]fluoropyridine-3-carboxy group", "values": [{"measurement": "GFR relative to the initial control value (PET-CT)", "setting": "[1]; 3 weeks of adenine", "result": "−50", "unit": "%"}, {"measurement": "GFR relative to the initial control value (PET-CT)", "setting": "[1]; 7 weeks of adenine", "result": "−20", "unit": "%"}, {"measurement": "GFR (PET)", "setting": "[1]; SD female rats (n = 6)", "result": "1.88 ± 0.16", "unit": "mL/min"}, {"measurement": "GFR/100 g (PET)", "setting": "[1]; SD female rats (n = 6)", "result": "0.61 ± 0.06", "unit": "ml/min · 100 g rat"}, {"measurement": "PET-CT GFR", "setting": "[1]; SD females (n=6), FIG. 5D", "result": "2.3 ± 0.3", "unit": "mL/min"}, {"measurement": "GFR (PET)", "setting": "[1]; SD male rats (n = 8)", "result": "3.20 ± 0.12", "unit": "mL/min"}, {"measurement": "GFR/100 g (PET)", "setting": "[1]; SD male rats (n = 8)", "result": "0.66 ± 0.07", "unit": "ml/min · 100 g rat"}, {"measurement": "Mean GFR, PET-CT value", "setting": "[1]; SD male rats, baseline before 0.35% adenine (CKD model)", "result": "2.94 ± 0.12", "unit": "mL/min"}, {"measurement": "GFR (PET)", "setting": "[1]; Wistar male rats (n = 6)", "result": "3.01 ± 0.35", "unit": "mL/min"}, {"measurement": "GFR/100 g (PET)", "setting": "[1]; Wistar male rats (n = 6)", "result": "0.68 ± 0.11", "unit": "ml/min · 100 g rat"}, {"measurement": "Dimer formation / protein binding (size exclusion HPLC elution pattern)", "setting": "[2]", "result": "no sign of dimer formation or protein binding"}, {"measurement": "Involvement of other organs such as liver and spleen", "setting": "[3]", "result": "negligible involvement of other organs"}, {"measurement": "Time of ^18F signal appearance in the bladder", "setting": "[3]; iv", "result": "less than 10 minutes"}, {"measurement": "Time of ^18F signal peak over the large abdominal vessels", "setting": "[3]; iv", "result": "less than 1 minute"}, {"measurement": "GFR measured with PET", "setting": "Mouse PET-CT GFR", "result": "0.55 ± 0.12", "unit": "mL/min"}]}, {"molecule": "CC(=O)N(CC(O)CO)c1c(I)c(C(=O)NCC(O)CO)c(I)c(C(=O)NCC(O)CO)c1I", "note": "(stereo not shown) [Iohexol]", "values": [{"measurement": "GFR relative to the initial control value (iohexol)", "setting": "Iohexol plasma clearance; 3 weeks of adenine", "result": "−50", "unit": "%"}, {"measurement": "GFR relative to the initial control value (iohexol)", "setting": "Iohexol plasma clearance; 7 weeks of adenine", "result": "−20", "unit": "%"}, {"measurement": "GFR Iohexol/100 g", "setting": "Iohexol plasma clearance; SD female rats (n = 6)", "result": "0.73 ± 0.07", "unit": "ml/min · 100 g"}, {"measurement": "k, plasma disappearance rate constant of iohexol for the second mono-exponential phase", "setting": "Iohexol plasma clearance; SD female rats (n = 6)", "result": "0.026 ± 0.002", "unit": "min⁻¹"}, {"measurement": "iohexol-based GFR", "setting": "Iohexol plasma clearance; SD females (n=6), FIG. 5D", "result": "2.3 ± 0.3", "unit": "mL/min"}, {"measurement": "GFR Iohexol/100 g", "setting": "Iohexol plasma clearance; SD male rats (n = 8)", "result": "0.59 ± 0.06", "unit": "ml/min · 100 g"}, {"measurement": "k, plasma disappearance rate constant of iohexol for the second mono-exponential phase", "setting": "Iohexol plasma clearance; SD male rats (n = 8)", "result": "0.025 ± 0.002", "unit": "min⁻¹"}, {"measurement": "GFR Iohexol/100 g", "setting": "Iohexol plasma clearance; Wistar male rats (n = 6)", "result": "0.64 ± 0.01", "unit": "ml/min · 100 g"}, {"measurement": "k, plasma disappearance rate constant of iohexol for the second mono-exponential phase", "setting": "Iohexol plasma clearance; Wistar male rats (n = 6)", "result": "0.027 ± 0.002", "unit": "min⁻¹"}, {"measurement": "clearance", "setting": "Iohexol plasma clearance; intravenous, SD male rats, baseline before 0.35% adenine (CKD model), read-out: Mean GFR estimated from iohexol clearance", "result": "2.89 ± 0.14", "unit": "mL/min"}, {"measurement": "clearance", "setting": "Iohexol plasma clearance; iv, SD female rats (n = 6), read-out: GFR Iohexol (iohexol clearance)", "result": "2.25 ± 0.26", "unit": "mL/min"}, {"measurement": "clearance", "setting": "Iohexol plasma clearance; iv, SD male rats (n = 8), read-out: GFR Iohexol (iohexol clearance)", "result": "2.89 ± 0.12", "unit": "mL/min"}, {"measurement": "clearance", "setting": "Iohexol plasma clearance; iv, Wistar male rats (n = 6), read-out: GFR Iohexol (iohexol clearance)", "result": "2.84 ± 0.34", "unit": "mL/min"}, {"measurement": "clearance", "setting": "[4]", "result": "0.51 ± 0.13", "unit": "mL/min"}]}, {"molecule": "B1", "values": [{"measurement": "Dimer formation / protein binding (size exclusion HPLC elution pattern)", "setting": "[2]", "result": "appeared mainly as dimers"}]}, {"molecule": "B2", "values": [{"measurement": "Dimer formation / protein binding (size exclusion HPLC elution pattern)", "setting": "[2]", "result": "appeared mainly as dimers"}]}]}
